From the supplement of paper PMC11246515
± gives the standard deviation of the averaged measurements.

Experiment: total protein half-life in vivo (active degradation + dilution); higher = more stable protein
[1] = E. coli NCM3722 delta-clpP delta-lon delta-hslV, growth: N-lim chemostat, doubling time 6 h
[2] = E. coli NCM3722 delta-clpP, growth: N-lim chemostat, doubling time 6 h
[3] = E. coli NCM3722 delta-hslV, growth: N-lim chemostat, doubling time 6 h
[4] = E. coli NCM3722 delta-lon, growth: N-lim chemostat, doubling time 6 h
[5] = E. coli NCM3722 delta-smpB, growth: N-lim chemostat, doubling time 6 h
[6] = wild type E. coli NCM3722, growth: C-lim chemostat, doubling time 3 h
[7] = wild type E. coli NCM3722, growth: C-lim chemostat, doubling time 6 h
[8] = wild type E. coli NCM3722, growth: C-lim chemostat, doubling time 12 h
[9] = wild type E. coli NCM3722, growth: N-lim chemostat, doubling time 6 h
[10] = wild type E. coli NCM3722, growth: N-lim chemostat, doubling time 12 h
[11] = wild type E. coli NCM3722, growth: P-lim chemostat, doubling time 6 h
[12] = wild type E. coli NCM3722, growth: P-lim chemostat, doubling time 12 h

Sequence | total protein half-life in vivo [1] [h] | total protein half-life in vivo [2] [h] | total protein half-life in vivo [3] [h] | total protein half-life in vivo [4] [h] | total protein half-life in vivo [5] [h] | total protein half-life in vivo [6] [h] | total protein half-life in vivo [7] [h] | total protein half-life in vivo [8] [h] | total protein half-life in vivo [9] [h] | total protein half-life in vivo [10] [h] | total protein half-life in vivo [11] [h] | total protein half-life in vivo [12] [h]
MSSLQILQGTFRLSDTKTLQLPQLTLNAGDSWAFVGSNGSGKSALARALAGELPLLKGERQSQFSHITRLSFEQLQKLVSDEWQRNNTDMLGPGEDDTGRTTAEIIQDEVKDAPRCMQLAQQFGITALLDRRFKYLSTGETRKTLLCQALMSEPDLLILDEPFDGLDVASRQQLAERLASLHQSGITLVLVLNRFDEIPEFVQFAGVLADCTLAETGAKEELLQQALVAQLAHSEQLEGVQLPEPDEPSARHALPANEPRIVLNNGVVSYNDRPILNNLSWQVNPGEHWQIVGPNGAGKSTLLSLVTGDHPQGYSNDLTLFGRRRGSGETIWDIKKHIGYVSSSLHLDYRVSTTVRNVILSGYFDSIGIYQAVSDRQQKLVQQWLDILGIDKRTADAPFHSLSWGQQRLALIVRALVKHPTLLILDEPLQGLDPLNRQLIRRFVDVLISEGETQLLFVSHHAEDAPACITHRLEFVPDGGLYRYVLTKIY | 4.48 ± 0.27 | 4.73 ± 1.6 | 3.5748 ± 0.0019 | 4.54 ± 0.7 | 4 ± 0.68 | 2.84 ± 0.087 | 5.233 ± 0.03 | 9.21 ± 0.47 | 3.942 ± 0.016 | 5.56 ± 0.14 | 5.68 ± 0.2 | 12 ± 0.93
MSSLSQAASSVEKRTNARYWIVVMLFIVTSFNYGDRATLSIAGSEMAKDIGLDPVGMGYVFSAFSWAYVIGQIPGGWLLDRFGSKRVYFWSIFIWSMFTLLQGFVDIFSGFGIIVALFTLRFLVGLAEAPSFPGNSRIVAAWFPAQERGTAVSIFNSAQYFATVIFAPIMGWLTHEVGWSHVFFFMGGLGIVISFIWLKVIHEPNQHPGVNKKELEYIAAGGALINMDQQNTKVKVPFSVKWGQIKQLLGSRMMIGVYIGQYCINALTYFFITWFPVYLVQARGMSILKAGFVASVPAVCGFIGGVLGGIISDWLMRRTGSLNIARKTPIVMGMLLSMVMVFCNYVNVEWMIIGFMALAFFGKGIGALGWAVMADTAPKEISGLSGGLFNMFGNISGIVTPIAIGYIVGTTGSFNGALIYVGVHALIAVLSYLVLVGDIKRIELKPVAGQ |  |  |  |  |  |  | 5.06 |  |  |  |  | 
MSSNTFTLGTKSVNRLGYGAMQLAGPGVFGPPRDRHVAITVLREALALGVNHIDTSDFYGPHVTNQIIREALYPYSDDLTIVTKIGARRGEDASWLPAFSPAELQKAVHDNLRNLGLDVLDVVNLRVMMGDGHGPAEGSIEASLTVLAEMQQQGLVKHIGLSNVTPTQVAEARKIAEIVCVQNEYNIAHRADDAMIDALAHDGIAYVPFFPLGGFTPLQSSTLSDVAASLGATPMQVALAWLLQRSPNILLIPGTSSVAHLRENMAAEKLHLSEEVLSTLDGISRE | 5.35 ± 0.76 | 4.8 ± 0.14 | 4.87 | 4.74 ± 1 | 4.18 ± 0.88 | 3.27 ± 0.3 | 5.527 ± 0.039 | 10.8 ± 0.75 | 5.01 | 8.77 | 6.443 ± 0.061 | 12.2 ± 0.21
MSSRKELANAIRALSMDAVQKAKSGHPGAPMGMADIAEVLWRDFLKHNPQNPSWADRDRFVLSNGHGSMLIYSLLHLTGYDLPMEELKNFRQLHSKTPGHPEVGYTAGVETTTGPLGQGIANAVGMAIAEKTLAAQFNRPGHDIVDHYTYAFMGDGCMMEGISHEVCSLAGTLKLGKLIAFYDDNGISIDGHVEGWFTDDTAMRFEAYGWHVIRDIDGHDAASIKRAVEEARAVTDKPSLLMCKTIIGFGSPNKAGTHDSHGAPLGDAEIALTREQLGWKYAPFEIPSEIYAQWDAKEAGQAKESAWNEKFAAYAKAYPQEAAEFTRRMKGEMPSDFDAKAKEFIAKLQANPAKIASRKASQNAIEAFGPLLPEFLGGSADLAPSNLTLWSGSKAINEDAAGNYIHYGVREFGMTAIANGISLHGGFLPYTSTFLMFVEYARNAVRMAALMKQRQVMVYTHDSIGLGEDGPTHQPVEQVASLRVTPNMSTWRPCDQVESAVAWKYGVERQDGPTALILSRQNLAQQERTEEQLANIARGGYVLKDCAGQPELIFIATGSEVELAVAAYEKLTAEGVKARVVSMPSTDAFDKQDAAYRESVLPKAVTARVAVEAGIADYWYKYVGLNGAIVGMTTFGESAPAELLFEEFGFTVDNVVAKAKELL | 3.63 ± 0.31 | 3.35 ± 0.19 | 3.03 ± 0.057 | 3.47 ± 0.1 | 3.033 ± 0.021 | 3.22 ± 0.077 | 5.19 ± 0.23 | 9.96 ± 0.12 | 3.15 ± 0.11 | 4.48 ± 0.056 | 5.65 ± 0.089 | 10.7 ± 0.21
MSTFKPLKTLTSRRQVLKAGLAALTLSGMSQAIAKDELLKTSNGHSKPKAKKSGGKRVVVLDPGHGGIDTGAIGRNGSKEKHVVLAIAKNVRSILRNHGIDARLTRSGDTFIPLYDRVEIAHKHGADLFMSIHADGFTNPKAAGASVFALSNRGASSAMAKYLSERENRADEVAGKKATDKDHLLQQVLFDLVQTDTIKNSLTLGSHILKKIKPVHKLHSRNTEQAAFVVLKSPSVPSVLVETSFITNPEEERLLGTAAFRQKIATAIAEGVISYFHWFDNQKAHSKKR | 5.02 ± 0.67 | 5.75 ± 0.35 | 4.89 ± 0.52 | 4.977 ± 0.029 | 4.41 ± 0.32 | 2.23 ± 0.033 | 3.5509 ± 0.0011 | 5 ± 0.2 | 5.08 ± 0.94 | 8.42 ± 0.29 | 4.48 ± 0.47 | 8.52 ± 0.41
MSTIEERVKKIIGEQLGVKQEEVTNNASFVEDLGADSLDTVELVMALEEEFDTEIPDEEAEKITTVQAAIDYINGHQA [P0A6A8] | 7.12 ± 0.32 | 5.957 ± 0.032 | 5.79 ± 0.28 | 7.19 ± 0.17 | 4.78 ± 1.6 | 3.14 ± 0.069 | 4.95 ± 1.3 | 8.88 ± 0.96 | 4 ± 0.13 |  | 5 ± 1.2 | 10.8 ± 0.47
